Results reported in the nanobody polyreactivity screen of Harvey et al. (2022).

Assay: yeast display, Sf9 membrane polyspecificity reagent, FACS + sequencing; frameworks hold sequencing errors
In short: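 Nanobodies from a synthetic yeast display library (Saccharomyces cerevisiae BJ5465), induced 36–48 hours with galactose, were stained 1 hour at 4 °C with 10% biotinylated, detergent-solubilized Sf9 membrane reagent, enriched on streptavidin microbeads, then FACS-sorted. Anti-HA (expression) and streptavidin (reagent binding) fluorescence set low and high (top ~1%) gates. Polyreactivity labels come from the gate of origin. Genes were colony-PCR amplified, MiSeq 2 × 250 sequenced and filtered by CDR length.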

**Q.** With “QVQLVESGGGLVQAGGSLRLSCAASGFTVSAYALGWYRQAPGKERELVAAISTRGGSTRYADSVKGRFTISRDNAKNTVYLQMNSLKPEDTAVYYCAADTRSFYRYDYWGQGTQVTVSS” as the sequence, how does the “polyreactivity (PSR sort gate)” value read?
**A.** high polyreactivity

**Q.** With “QVQLVESGGGLDQAGGSLRLSCAASGSIFPPYAMGWYSQAPGKERELVATITIRGGSTYYADSVKGRFTISRDNAKNTVYLQMNSLKPEDTAVYYCAADYTKYYRRYYYWGQGTQVTVSS” as the sequence, how does the “polyreactivity (PSR sort gate)” value read?
**A.** high polyreactivity

**Q.** Which “polyreactivity (PSR sort gate)” value does the source give for “QVQLGESGGGLVQAGGSLRLSCAASGSTFDYYAMGWYRQAPGKERELVAGITSDGSTYYADSVKGRFTISRDNAKNTVYLQMNSLKPEDTAVYYCNKDSTGDGYEYWGQGTQVTVSS” here?
**A.** low polyreactivity

**Q.** For “QVQLVESAGGLVQAGGSIRLSCAASGNIFFVYDMGWYRQAPGKERELVAAISWSGGSTYADSVKGRFTISRDNAKNTVYLQMNSLKPEDTAVYYWAASYGVYWYSFWYHVAWLDYWGQGTQVTVSS”, which “polyreactivity (PSR sort gate)” value is on record?
**A.** low polyreactivity

**Q.** For “QVQLVESGGGLVQAGGSLRLSCAASGFTFRENAMGWYRQAPGKERELVAAISKRGGTTYYADSVKGRFTISRDNAKNTVYLQMNSLKPEDTAVYYCAAESYSGPYAYEYWGQGTQVTVSS”, which “polyreactivity (PSR sort gate)” value is on record?
**A.** high polyreactivity

**Q.** With “QVQLVESGGGLVQAGGSLRLSCAASGRIFDYYAMGWYRQAPGKERELVAAISSSVGNTYYADSVKGRFTISRDNAKNTVYLQMNSLKPEDTAVYYCADYSYVRSSYEVEYDYWGQGTQVTVSS” as the sequence, how does the “polyreactivity (PSR sort gate)” value read?
**A.** low polyreactivity

**Q.** With “QVQLVESGGGLVQAGGSLRLSCAASGSTFKWYAMGWYRQAPGKERELVAAITRGGSTSYADSVKGRFTISLDNAKNTVYLQMNSLKPEDTAVYYCAADYHYTKSMYYWGQGTQVTVSS” as the sequence, how does the “polyreactivity (PSR sort gate)” value read?
**A.** low polyreactivity

**Q.** For “QVQLVESGGGLVQAGGSLRLSCAASGSIFPIYAMGWYRQAPGKERELVAGIRGRGGRTYYADSVKGRFTISRDNAKNTVYLQMNSLKPEDTAVYYCAKANLTPQGRGDYDYWGQGTQVTVSS”, which “polyreactivity (PSR sort gate)” value is on record?
**A.** high polyreactivity

**Q.** For “QDQLVESGGGLVQAGGSLRLSCAASGSIFLIYAMGGYRQAPGKERELVAAITWGGGSTYYADSVKGRFTISRDNAKNTVYLQMTSLKPVDTAVYYCAAYSYSSSFGYRYDYWGQGTQVTVSS”, which “polyreactivity (PSR sort gate)” value is on record?
**A.** high polyreactivity

**Q.** With “QVQLVESGGGLVQAGGILLLSCAASGGTFENYAMGWYIQAPGKERELVAAISSGGSTNYADSVKGRFTISRDNAKNTVYLQMNRLKPEDTAVYYCARYRVWGSNGHKLFHYDYWGQGTQVTVSS” as the sequence, how does the “polyreactivity (PSR sort gate)” value read?
**A.** low polyreactivity

**Q.** For “QVQLVESGGGLVQAGGSLRLSCAASGSTFSIYAMGWYRQAPGKERELVADITANGGSTYYADSVKGRFTISRDNAKNTVYLPMNSLKPEDTAVYYCAADAKSFDAVHYDYWGQGTHVTVSS”, which “polyreactivity (PSR sort gate)” value is on record?
**A.** low polyreactivity

**Q.** Which “polyreactivity (PSR sort gate)” value does the source give for “QVQHVESGGGLLQAGGSLRLSCAASGSIFYVYAMGWYRQAPGKERELVASISCGDSSTYYADSVKGRFTISRDNAKNTVYLQMNILIPEDTAVYYCAADDYRQYALYDYWGQGTHVTVSS” here?
**A.** low polyreactivity

**Q.** With “QVQLVESGGGLVHAGGSLRLSCAASGRTFYRYGMGWYREARGKERELVAAISNRGGTTYYADSLKGRFTISRDNAKNTVYLQMNSLKPEDTAVYYCAADSVYAEYDSWGQGTQVTVSS” as the sequence, how does the “polyreactivity (PSR sort gate)” value read?
**A.** low polyreactivity

**Q.** Which “polyreactivity (PSR sort gate)” value does the source give for “QVQLVESGGGLVQAGGSLRLSCAASGSTFDKNAMGWYRQAPGKERELVDAISIGVSTNYADSVKGRFTISRDNAKNTVYLQMNSLKPEDTAVYYCAADLFFGAETVYYDKFDYWGQGTQVTVSS” here?
**A.** low polyreactivity

**Q.** With “QVQLVESGGGLVQAGGSLRLSCAASGRTFSYYAMGWYRQAPGKEREFVAAISSTGTSTYYADSVKGRFTISRDTAKNTVYLQKNSLKPEDTAVYYCNARLATYRLHSKFYYWGQGTQVTVSS” as the sequence, how does the “polyreactivity (PSR sort gate)” value read?
**A.** high polyreactivity

**Q.** Which “polyreactivity (PSR sort gate)” value does the source give for “QVQLVESGGGLVQAGGSLRLSCAASGSIFFPYVMGWYRQAPGKERELVAAITYRAGSTYYADSVKGRFTISRDNAKNTVYLQMNSLKPEDTAVYYCAAVVSRSGEFGYWGQGTQVTVSS” here?
**A.** low polyreactivity

**Q.** With “QVQLVESGGGLVQAGGSLRLSCAASGSIFDRNAMGWYRQAPGKERELVATITWSGVSTYYADSVKGRFTISRDNAKNTVYLQMNSLKPEDTAVYYCNADYSYRHWYDPGQYGQAMGYWGLGTQVTVSS” as the sequence, how does the “polyreactivity (PSR sort gate)” value read?
**A.** low polyreactivity

**Q.** Which “polyreactivity (PSR sort gate)” value does the source give for “QVQLVDSGGGLVQAGGILRLICAASGSTFGFYAMGWYRQAPGKERELVAAITTGGSTNYADSVKGRFTISRDNAKNTVYLQMNSLKPEDTAVYYCNADVFWNPYYDYDFWGQGTQVTVSS” here?
**A.** high polyreactivity

**Q.** With “QVQLVESGGGLVQAGGSLRLSCAASGRIFRIYAMGWYRQAPGKERELVASISDRGTRTYYADSVKGRFTISRDNAKNTVYLQMNSLKPEDTAVYYCAASTYTKFHTYYKSQASDYWGQGTQVTVSS” as the sequence, how does the “polyreactivity (PSR sort gate)” value read?
**A.** high polyreactivity

**Q.** With “QVQLVESGGGLVQAGGSLRLSCAASGFILKPNAMGWYRQAPGKERELVAAISWSSGSTYYADSVKGRFTISRDNAKNTVYLQMNSLKPEDTAVYYCAKDLTQIYYGDDYWGQGTQVTVSS” as the sequence, how does the “polyreactivity (PSR sort gate)” value read?
**A.** low polyreactivity

**Q.** Which “polyreactivity (PSR sort gate)” value does the source give for “QVQLVESGGGLVQAGGSLRLSCAASGSIFVLNAMGWYRQAPGKERELLAGITYSGGSTYYADSVKGRFTISRDNAKNTVYLQMNSLKPEDTAVYYCAAPVRRYPYPGRFYYWGQGTQVTVSS” here?
**A.** low polyreactivity

**Q.** Which “polyreactivity (PSR sort gate)” value does the source give for “QVQLVESGGGLVQAGGSLRLSCAASGFTFSYYAMGWYRQAPGKERELVAAITSSAGSTYYADSVKGRFTISRDNAKNTVYLQMNSLKPEDTAVYYCNAVYSKLNGGYDYWGQGTQVTVSS” here?
**A.** low polyreactivity

**Q.** With “QVQLVESGGGLFQAGGSIRLSCAASGRISEGYAMGWYIQAPGKERELVAAITSSTASTYYADSVKGRFTISRDNAKNTVYLQMNSLKPEDTAVYYCNADYGLYPEDYDYWGQGTQVTVSS” as the sequence, how does the “polyreactivity (PSR sort gate)” value read?
**A.** low polyreactivity

**Q.** Which “polyreactivity (PSR sort gate)” value does the source give for “QVQLVESRGGLVQAGGSLRLSCAASGSTFKPNAMGWYRPAPGKERELVAAITSGSTYYADSVKGRFTISRDNAKNTVYLQMNSLKPEDTAVYYCATSFRGKSPYRNSGSYYYWGQGTQVTVSS” here?
**A.** high polyreactivity

**Q.** With “QVQLVESGGGLVQAGGSLRLSCAASGSIFGYNAMGWYRQAPGKERELVATISSGGSTNYADSVKGRFTISRDNAKNTVYLQMNSLKPEDTAVYYCAKEYGSIIPYDYWGQGTQVTVSS” as the sequence, how does the “polyreactivity (PSR sort gate)” value read?
**A.** low polyreactivity

**Q.** With “QVQLVESGGGLVQAGGSLRLSCAASGRTFATNAMGWYSQAPGKERELVAGINGSGSTNYADSVKGRFTISRDNAKNTVYLQMNSLKPEDTAVYYCAAYVGLYYRLHYYYWGQGTQVTVSS” as the sequence, how does the “polyreactivity (PSR sort gate)” value read?
**A.** low polyreactivity

**Q.** For “QVQLVESGGGLVQAGGSLRLSCAASGRIFTRNAMRWYRQAPGKEREFVAAISHSGGSTYADSVKGRFTISRDNAKNTVFLQMNSLKPEDTAVFYCAAEWSSLNFDYWGQGTQVTVSS”, which “polyreactivity (PSR sort gate)” value is on record?
**A.** low polyreactivity

**Q.** With “QVQLVETGGGLVQAGGSLRLSCAASGNTFQRYTMGWYRQAPGNERELVAAITWSGGNTYYADSVKGRFTISRDNAKNTVYLQMNSLKPVDTAVYYCNADYPTTAYDYWGQGTQVSVSS” as the sequence, how does the “polyreactivity (PSR sort gate)” value read?
**A.** low polyreactivity

**Q.** For “QVQLVESGGGLVQAGGSLRLSCAASGRTFYDYDMGWYRQAPGKERELFAAISGGDSTYYADSVKGRFTISRDNAKNTFYLQLKSLKPEDTAVYDCAVTPRGLPYGAYLLYYWGQGTQVTVSS”, which “polyreactivity (PSR sort gate)” value is on record?
**A.** low polyreactivity

**Q.** Which “polyreactivity (PSR sort gate)” value does the source give for “QVQLVESAGGLVQAGGSLPLSCAASGRTFQTNLMGWYRQAPGKERELVAAITLSGGSTNYADSVKVRFTISRDNAKKTVYLQMNSLKPEDTAVYYCNAERRYRHQLTPHYEYDYWGKGTQVTVSS” here?
**A.** low polyreactivity

**Q.** For “QVQLVESGGGLVKAGGSLRLSCAASGSTFYAYAMGWSRQAPGKERELVAAISSSGGSTYYADSVKGRFTISRDNAKNTVYLQMNSLKPEDTAVYYCAAYDSVQIYWILGFDYWGQGSQVTVSS”, which “polyreactivity (PSR sort gate)” value is on record?
**A.** low polyreactivity

**Q.** Which “polyreactivity (PSR sort gate)” value does the source give for “QVQLVESGGGLVQAGGSLRLSCAASGRTFWAYAMGWYRQAPGKERELVAAITTSGGSTNYADSVKGRFTISRDNAKNTVYLQMNSLKPEDTAVYYCNADPTYHVVNGVGYLGQGTQVTVSS” here?
**A.** low polyreactivity

**Q.** With “QVQLVESGGGLVQEGGSLRLSCAASGFTFYWYAMGWYRQAPGKERELVAAITRSGSSTYYADSVKGRFTISRDNAKNTVYLQMNSLKPEDTEVYYCAALPYKPYYDAYDYWGQGTQVTVSS” as the sequence, how does the “polyreactivity (PSR sort gate)” value read?
**A.** high polyreactivity

**Q.** With “QVQLVESGGGLVQAGGSLRLSCAASGFIFTFYALGWYRQAPGKEREFVASIDWGDGSTYYADSVKGRFTISRDNAKNTVYLQMNSLKPEDTAVYYCAHDYDGYVWDTEYDYWGQGTQVTVSS” as the sequence, how does the “polyreactivity (PSR sort gate)” value read?
**A.** low polyreactivity

**Q.** Which “polyreactivity (PSR sort gate)” value does the source give for “QVQLVESGGGLVQAGGSLRLSCAASGLIFRRYTMGRYRQATGKERELVAAISRGGASTSYADSVKGRFTISRDNAKNTVYLQMNSLIPEDTAVYYCAATSPRSSRTYAYDYWGQGTQVTVSS” here?
**A.** high polyreactivity

**Q.** With “QVQLLESGGGLVQAGGSLRLSCAASGSIFLFYDMGLYRHAPGKERELVATITSGTNTYADSVKGRFTISRDNAKNTGYLQMNSLKPEDTAVYSCAAGFSTASQLDYWGQVTQVTVSS” as the sequence, how does the “polyreactivity (PSR sort gate)” value read?
**A.** low polyreactivity

**Q.** Which “polyreactivity (PSR sort gate)” value does the source give for “QVQLVESGGGLVQAGGSLRLSCAASGRTLFYYTMGWYRQAPGKERELVAAITTGGRTYYADSVKGRFTISRDNAKNTVYLQMNSLKPEDTAVYYCAAHTYYYPVGFNYWGQGTQVTVSS” here?
**A.** low polyreactivity

**Q.** For “QVQLVESGGGLVQAGGSLRLTCAASGRPFGKNGMGWYRQAPGKEREWVAAISLSGGSTYYADSVKGRFTISRDYAKNTVYLQMNSLKPEDTAVYYCAAYGIRGPVYQYYFWGQGTQVTVSS”, which “polyreactivity (PSR sort gate)” value is on record?
**A.** low polyreactivity

**Q.** With “QVQLVESGGGLVQAGGSLRLSCAASGSTFVVNAMAWYRQAPGKERELVAVISYSGDSTYYADSVKGRFTISRDNAKNTVYLQMNSLKPEDSAVYYCNADYYDESNWGQGTQVTVSS” as the sequence, how does the “polyreactivity (PSR sort gate)” value read?
**A.** low polyreactivity

**Q.** Which “polyreactivity (PSR sort gate)” value does the source give for “QVQLVESGGGLVQAGGSLRLSCAASGRIFGVYAMGWYRQAPGKEREFVARISWHGGRTYYADSVKGRFTISRDNAKNTVYLQMNSLKPEDTAVYYCAADHGYPSRLDYWGQGTQVTVSS” here?
**A.** high polyreactivity

**Q.** Which “polyreactivity (PSR sort gate)” value does the source give for “QVQLVESGGGLVQAGGSLRLICAASGSTFKYNAMGWYRQAPGKERELVAAISSGGSTNYADSVKGRFTISRDNAKNTVYLQMHSLKPEDTAVYYCNAAYNYVTPWYFYWGQGTQVTVSS” here?
**A.** high polyreactivity
